Target: T1, AtHB13-GST (Arabidopsis thaliana, UniProt Q8LC03 1-294)
T1 sequence: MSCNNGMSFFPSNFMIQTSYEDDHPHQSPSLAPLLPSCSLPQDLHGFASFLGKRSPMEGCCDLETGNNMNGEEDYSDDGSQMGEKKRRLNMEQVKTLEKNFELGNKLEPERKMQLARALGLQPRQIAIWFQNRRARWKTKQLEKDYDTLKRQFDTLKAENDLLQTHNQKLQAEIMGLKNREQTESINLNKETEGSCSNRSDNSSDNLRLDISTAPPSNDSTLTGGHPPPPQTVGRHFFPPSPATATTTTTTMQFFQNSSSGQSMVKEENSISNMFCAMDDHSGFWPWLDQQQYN
Test: EMSA; 200x unlabeled same-sequence competitor also run (lane 3); EMSA as in Wu et al. 2012, Odyssey Infrared EMSA kit (LI-COR); buffer, salt, pH and temperature not stated
Conditions: protein: recombinant; tags: GST (pDEST24, C-terminal fusion); chain copies: 2; label: 5'-DY682; blunt

B1: JUB1 promoter 40-bp fragment (AtHB13BS-L) (dsDNA)
DNA 1: CTATAAAATTAGTTGCAATAAATGATTTAATTATTTTCCG
DNA 2: CGGAAAATAATTAAATCATTTATTGCAACTAATTTTATAG
B1: binds.

— PMC5736527, “JUNGBRUNNEN1 Confers Drought Tolerance Downstream of the HD-Zip I Transcription Factor AtHB13”
